Reference: PMC5057122, “Arabidopsis aldehyde dehydrogenase 10 family members confer salt tolerance through putrescine-derived 4-aminobutyrate (GABA) production” (Scientific Reports, 2016)
Blank lines part the entries; values can stand above or below the molecule they belong to.

What was measured:
[1] = target: T1, AtALDH10A8 (Arabidopsis thaliana, UniProt Q9S795); test: NADH formation at […] nm, substrate-inhibition Michaelis-Menten fit; type: biochemical; settings: substrate inhibition (partial); 100 μM NAD+, pH 8.5, room temperature; apparent
T1 construct: gene ALDH10A8
T1 sequence (Q9S795 1-501): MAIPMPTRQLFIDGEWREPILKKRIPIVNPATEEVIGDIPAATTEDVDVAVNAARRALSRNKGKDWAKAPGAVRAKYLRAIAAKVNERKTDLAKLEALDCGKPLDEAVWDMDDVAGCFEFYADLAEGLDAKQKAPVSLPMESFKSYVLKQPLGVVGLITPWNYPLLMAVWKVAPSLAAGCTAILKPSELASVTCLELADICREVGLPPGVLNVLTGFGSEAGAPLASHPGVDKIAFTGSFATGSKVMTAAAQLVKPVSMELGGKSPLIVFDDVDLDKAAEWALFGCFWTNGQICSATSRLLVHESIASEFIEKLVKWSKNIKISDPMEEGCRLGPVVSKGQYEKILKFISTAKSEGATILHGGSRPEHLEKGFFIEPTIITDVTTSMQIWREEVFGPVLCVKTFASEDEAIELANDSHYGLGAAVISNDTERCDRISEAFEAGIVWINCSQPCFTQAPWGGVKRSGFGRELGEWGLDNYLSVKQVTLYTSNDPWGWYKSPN

[2] = target: T2, AtALDH10A9 (Arabidopsis thaliana, UniProt Q9STS1); test: as above; type: biochemical; settings: 500 μM NAD+, pH 9.5, room temperature, apparent
T2 construct: gene ALDH10A9
T2 sequence (Q9STS1 1-503): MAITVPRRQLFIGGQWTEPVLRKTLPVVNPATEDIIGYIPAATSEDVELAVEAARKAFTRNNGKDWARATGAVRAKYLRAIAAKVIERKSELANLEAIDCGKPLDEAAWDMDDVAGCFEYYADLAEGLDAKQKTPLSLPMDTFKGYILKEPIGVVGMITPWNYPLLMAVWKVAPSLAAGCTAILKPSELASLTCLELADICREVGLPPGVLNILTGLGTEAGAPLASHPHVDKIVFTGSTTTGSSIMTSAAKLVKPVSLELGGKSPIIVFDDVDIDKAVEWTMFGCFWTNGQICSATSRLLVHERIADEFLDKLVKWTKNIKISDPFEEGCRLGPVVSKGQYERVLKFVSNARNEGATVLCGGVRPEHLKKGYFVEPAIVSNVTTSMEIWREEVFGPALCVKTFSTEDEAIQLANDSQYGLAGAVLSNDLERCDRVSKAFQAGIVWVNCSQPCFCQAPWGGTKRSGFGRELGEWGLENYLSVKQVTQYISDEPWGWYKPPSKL

[3] = substrate: NCCCC=O; test: purified protein; type: biochemical, Arabidopsis thaliana; settings: apparent
[4] = substrate: NC(=O)c1ccc[n+]([C@@H]2O[C@H](COP(=O)(O)OP(=O)(O)OC[C@H]3O[C@@H](n4cnc5c(N)ncnc54)[C@H](O)[C@@H]3O)[C@@H](O)[C@H]2O)c1; test: purified protein; type: biochemical, Arabidopsis thaliana; settings: apparent, varied: cofactor
[5] = substrate: NCCC=O; test: purified protein; type: biochemical, Arabidopsis thaliana; settings: apparent
[6] = 500 μM NAD+, pH 9.5, room temperature
[7] = co-substrate 30 μM APAL (subsaturating), pH 9.5, room temperature
[8] = 100 μM NAD+, pH 8.5, room temperature
[9] = co-substrate 7 μM APAL (subsaturating), pH 8.5, room temperature

- AtALDH10A8 / Kis [1]: 5.5 ± 0.3 µM
- AtALDH10A9 / Kis [2]: 19000 ± 5800 µM
Molecule: NCCC=O [APAL]

- AtALDH10A8 / Kis [1]: 55.7 ± 26.0 µM
- AtALDH10A9 / Kis [2]: 2600 ± 750 µM
Molecule: NCCCC=O [ABAL]

B1: AtALDH10A9 (Arabidopsis thaliana) (protein)
chain: T2 sequence (Q9STS1 1-503)
- Km [3, 6]: 460 ± 65 µM
- kcat/Km [3, 6]: 0.02 µM⁻¹ s⁻¹
- Km [4, 7]: 86 ± 16 µM
- kcat/Km [4, 7]: 0.15 µM⁻¹ s⁻¹
- Km [5, 6]: 17.3 ± 4.1 µM
- kcat/Km [5, 6]: 0.82 µM⁻¹ s⁻¹

B2: AtALDH10A8 (Arabidopsis thaliana) (protein)
chain: T1 sequence (Q9S795 1-501)
- Km [3, 8]: 25.1 ± 2.5 µM
- kcat/Km [3, 8]: 0.06 µM⁻¹ s⁻¹
- Km [4, 9]: 13.2 ± 1.5 µM
- kcat/Km [4, 9]: 0.26 µM⁻¹ s⁻¹
- Km [5, 8]: 14.4 ± 2.7 µM
- kcat/Km [5, 8]: 1.03 µM⁻¹ s⁻¹
